± gives the standard error. Variants at the floor of the assay were thinned out.
B1: glmS ribozyme (parent)
chain: AUAAAAGCGCCAGAACUACAGAAAUGUAGUUGACGAGGAGGAGGUUUAUCGAAUUUUCGGCGGAUGCCUCCAAA

Legend:
Conditions in all cases: with glucosamine-6-phosphate
glucosamine-6-phosphate [1] = variants of: B1; experiment: self-cleavage kobs at 160 uM GlcN6P; higher = faster cleavage; RNA array
Outline: (§1)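 E. coli RNA polymerase transcribed barcoded ribozyme variants in situ on sequenced MiSeq chips, which were tracked via a hybridised Cy3 probe at 37 °C. Tiles were imaged over ~14 h after glucosamine-6-phosphate (40 μM to 10 mM) in HEPES/KCl/Mg(OAc)2 buffer was flowed in. Normalised per-tile medians were fit to one- or two-exponential decays for kobs, and kcat and KM came from weighted Michaelis–Menten fits.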

glucosamine-6-phosphate [2] = variants of: B1; experiment: self-cleavage kobs at 640 uM GlcN6P; higher = faster cleavage; RNA array
Outline: as §1

glucosamine-6-phosphate [3] = variants of: B1; experiment: self-cleavage kobs at 2500 uM GlcN6P; higher = faster cleavage; RNA array
Outline: as §1

glucosamine-6-phosphate [4] = variants of: B1; experiment: self-cleavage kobs at 10000 uM GlcN6P; higher = faster cleavage; RNA array
Outline: as §1

| Variant | self-cleavage kobs at 160 uM GlcN6P (glucosamine-6-phosphate [1]) | self-cleavage kobs at 640 uM GlcN6P (glucosamine-6-phosphate [2]) | self-cleavage kobs at 2500 uM GlcN6P (glucosamine-6-phosphate [3]) | self-cleavage kobs at 10000 uM GlcN6P (glucosamine-6-phosphate [4]) |
| --- | --- | --- | --- | --- |
| AUAAAAGCGCCAGAACUACAGAAAUGUAGUUGACGAGGAGGAGGUUUAUCUAAUUUUCGGCGCAUGGCUCCAAA [G51U G63C C67G] | < 1e-05 s⁻¹ | < 1e-05 s⁻¹ | < 1e-05 s⁻¹ | < 1e-05 s⁻¹ |
| AUAAAAGGGCCAGAACUACAGAAAUGUAGUUGACGAGGAGGAGGUUUAUAGAAUUUUCGGCGGAUGCCUCCAAA [C8G C50A] | < 1e-05 s⁻¹ |  | < 1e-05 s⁻¹ | < 1e-05 s⁻¹ |
| AUAAAAGCGCCAGAACUACAGAAAUGUAGUUGACGAGGAGGAGGUUUAUCUGAUUUUUAGCGGAUGCCUCCAAA [G51U A52G C58U G59A] | < 1e-05 s⁻¹ | < 1e-05 s⁻¹ | < 1e-05 s⁻¹ |  |
| AUAAAAGCGCCAGAACUACAGAAAUGUAGUUGACGAGCAGGAGGUUUAUCGAAUAUUCGGCGGAUGCCUCCAAA [G38C U55A] | < 1e-05 s⁻¹ | < 1e-05 s⁻¹ |  |  |
| AUAAAAGCGCCACAACUACAGAAAUGUAGUUGACGAGGAGGAGGUUUAUCGAAUUUUGGGCGGAUGCCUCCAAA [G13C C58G] | < 1e-05 s⁻¹ |  |  |  |
| AUAAAAGCACCAGAACUACAGAAAUGUAGUUCACGAGGAGGAGGUUUAUCGAAUUUUCGGCGGAUGUCUCCAAA [G9A G32C C67U] | < 1e-05 s⁻¹ | < 1e-05 s⁻¹ |  |  |
| AUAAAAGCGCCAGAACUACAGAAAUGUAGUUGAUGAGGAGGAGGUUAAUCGAAUUUUCGGCGGAUGCCUCCAAA [C34U U47A] | < 1e-05 s⁻¹ |  | < 1e-05 s⁻¹ |  |
| AUAAAAGCGCCAGAACUACAGAAAUGUAGUUGACGAGGAGGAGGUUUUUCGAAUUUUCGGCGGAUGCUUUCAAA [A48U C68U C70U] | < 1e-05 s⁻¹ |  |  |  |
| AUAAAAGCAUCAGAACUACAGAAAUGUAGUUGACGAGGAGGAGGUUUAUCGAAUUUUCGGCGGAUGCCUCCAAA [G9A C10U] | < 1e-05 s⁻¹ | < 1e-05 s⁻¹ | < 1e-05 s⁻¹ | < 1e-05 s⁻¹ |
| AUAAAAGCACCAGAACUACAGAAAUGUAGUUGACGAGGAGGAGGUUUAUCGAAUUUUAGGCGGAUGCCUCCAAA [G9A C58A] | < 1e-05 s⁻¹ | < 1e-05 s⁻¹ | < 1e-05 s⁻¹ |  |
| AUAAAAGCGCCAGAACUACAGAAAUGUAGUUGACGAGGAGGAGGUUUAUCAAAUUUUCGGCGGAUACCUCCAAA [G51A G66A] | < 1e-05 s⁻¹ | < 1e-05 s⁻¹ |  |  |
| AUAAAAGUGCCAUAACUACAGAAAUGUAGUUGACGAGGAGGAAGUUUAUCGAAUUUUCGGGGGAUGCCUCCAAA [C8U G13U G43A C61G] | < 1e-05 s⁻¹ |  |  |  |
| AUAAAAGCGCCAGAACUACAGAAAUGUAGUUGCCGAGGAGGAGGUUUAUCGAAUUUGCGGCGGAUGCCUCCAAA [A33C U57G] | < 1e-05 s⁻¹ |  |  |  |
| AUAAAAGCGCCAGAACUACAGAAAUGUAGUUGAUGAGGAGGAGGUUUAUCGAAAUUUCGGCGGAUGCCGCCAAA [C34U U54A U69G] | 0.000126 ± 4.6e-05 s⁻¹ | 0.000598 ± 0.0002 s⁻¹ | 0.000128 ± 4.7e-05 s⁻¹ | 0.000125 ± 3.4e-05 s⁻¹ |
| AUAAAAUCGUCAGAACUACAGAAAUGUAGUUGACAAGGAGGAGGUUUAUCGAAUUUUCGGCGGAUGCGUCCAAA [G7U C10U G35A C68G] | 0.000125 ± 5.5e-05 s⁻¹ |  |  | 0.000284 ± 0.00012 s⁻¹ |
| AUAAAAGCGCCAGGACUACAGAAAUGUAGUUGCCGAGGAGGAGGUGUAUCGAAUUUUUUGCGGAUGCCUCCAAA [A14G A33C U46G C58U G59U] | < 1e-05 s⁻¹ | < 1e-05 s⁻¹ | < 1e-05 s⁻¹ |  |
| AUAAAAGCGCCAGUACUACAGAAAUGUAGUUGACGAGGAGGAUGUUUAUCCAAUUUUCGGCGGAUGCCUCCAAA [A14U G43U G51C] | < 1e-05 s⁻¹ |  |  |  |

Reference: the supplement of paper PMC7125110
